The target of the experiment is Dyn1_(387kD) (S. cerevisiae) (UniProt P36022). As to the kind of experiment: single-molecule GFP fluorescence intensity; GFP-tagged motors on surface-immobilised Cy5 MTs, with ATP or apyrase, 5 min; intensities of GFP spots compared with GST-Dyn1 331kD.

1 substance from PMC3762337 can be followed below.

Dyn1_(387kD), P36022 732-4092 gave a stoichiometry N of 2.

As usually defined, the stoichiometry N is the number of molecules, sites or subunits per partner or assembly.
